Where no end group is shown, it is not given here. [ ]: non-standard residue; d: D form. The star is where a group is joined. pT = C[C@@H](OP(=O)(O)O)[C@H](N)C(=O)O; Butyl(4-Ph) = c1ccc(CCCC*)cc1
Tests used:
[1] = molecular target: Plk1 polo-box domain (PBD), purified protein of the fluorescence polarization assay; test: fluorescence polarisation
HA-EGFP-Plk1, P53350 = test: ELISA; settings: remark: other sources report otherwise
HA-EGFP-Plk1, P53350, sequence (P53350 whole entry): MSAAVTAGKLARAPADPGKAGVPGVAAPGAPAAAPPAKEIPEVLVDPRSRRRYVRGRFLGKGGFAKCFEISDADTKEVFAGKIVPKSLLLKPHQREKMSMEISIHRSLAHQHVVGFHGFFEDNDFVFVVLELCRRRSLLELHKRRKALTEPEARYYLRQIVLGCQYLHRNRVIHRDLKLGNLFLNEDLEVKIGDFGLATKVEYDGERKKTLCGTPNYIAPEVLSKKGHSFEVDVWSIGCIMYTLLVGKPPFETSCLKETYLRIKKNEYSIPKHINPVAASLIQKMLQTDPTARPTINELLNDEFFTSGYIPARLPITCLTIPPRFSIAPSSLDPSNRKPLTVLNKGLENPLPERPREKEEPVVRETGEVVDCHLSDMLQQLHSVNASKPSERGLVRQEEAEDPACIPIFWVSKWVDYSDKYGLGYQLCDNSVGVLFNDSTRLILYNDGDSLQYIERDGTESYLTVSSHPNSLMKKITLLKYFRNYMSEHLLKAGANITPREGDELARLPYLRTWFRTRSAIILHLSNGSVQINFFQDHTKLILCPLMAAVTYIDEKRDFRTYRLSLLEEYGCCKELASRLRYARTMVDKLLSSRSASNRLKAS

Row | Binder | IC50 [1] [µM] | IC50 (HA-EGFP-Plk1, P53350) [µM]
1 | P(Butyl(4-Ph))LHS[pT] [peptide 8] | 0.038 | –
2 | P(Butyl(4-Ph))LHA[pT] [peptide 7(S4A)] | 4.15 | 43
3 | GPMQS[pT]PLNG-OH (N-terminus assumed; SMILES CSCC[C@H](NC(=O)[C@@H]1CCCN1C(=O)CN)C(=O)N[C@@H](CCC(N)=O)C(=O)N[C@@H](CO)C(=O)N[C@H](C(=O)N1CCC[C@H]1C(=O)N[C@@H](CC(C)C)C(=O)N[C@@H](CC(N)=O)C(=O)NCC(=O)O)[C@@H](C)OP(=O)(O)O) [peptide GPMQSpTPLNG-OH (9)] | 1.12 | –

Source: PMC3355227
